The subject of data set [1] is Max* in heterodimer;ΔMax* in heterodimer V99G;R100E;A101S;L102E;E103S (;), P61244+P61244-3. Put plainly: fluorescence anisotropy. The note with it: 37 C, 1:1 mixture, apparent 1/KBinding, internal fluorescein-dT (iFluorT) at position 4, FA: 15 nM dsDNA, 50 mM Tris, 50 mM KCl, pH 7.5, 37 C, EMSA: 250 nM DNA, 20 mM Tris-HCl, 75 mM KCl, 2.5 mM TCEP, 25 ug/mL BSA, 5% glycerol, pH 8.0, room temp …. For orientation: In fluorescence polarisation assays a small probe gives low polarisation when free and higher when bound to something large.

In data set [2] the test system is ΔMax* (b-HLH-LZ of ΔMax splice isoform) V99G;R100E;A101S;L102E;E103S, P61244-3. Put plainly: fluorescence anisotropy. The note with it: 37 C; apparent 1/KBinding of dimer; 1/KDimer 220 ± 20 nM; internal fluorescein-dT (iFluorT) at position 4; FA: 15 nM dsDNA, 50 mM Tris, 50 mM KCl, pH 7.5, 37 C; EMSA: 250 nM DNA, 20 mM Tris-HCl, 75 mM KCl, 2.5 mM TCEP, 25 ug/mL BSA, 5% glycerol, pH 8.0, room temp ….

Data set [3] relates to ΔMax* in heterodimer;c-Myc* in heterodimer V99G;R100E;A101S;L102E;E103S (;), P61244-3+P01106. The data set can be described thus: fluorescence anisotropy. The note with it: 37 C, 1:1 mixture, apparent 1/KBinding, internal fluorescein-dT (iFluorT) at position 4, FA: 15 nM dsDNA, 50 mM Tris, 50 mM KCl, pH 7.5, 37 C, EMSA: 250 nM DNA, 20 mM Tris-HCl, 75 mM KCl, 2.5 mM TCEP, 25 ug/mL BSA, 5% glycerol, pH 8.0, room temp ….

The target of data set [4] is T1, Max* (b-HLH-LZ of WT Max) (UniProt P61244 22-103). Put plainly: CD thermal denaturation; complex T° 56.1 C; FA: 15 nM dsDNA, 50 mM Tris, 50 mM KCl, pH 7.5, 37 C; EMSA: 250 nM DNA, 20 mM Tris-HCl, 75 mM KCl, 2.5 mM TCEP, 25 ug/mL BSA, 5% glycerol, pH 8.0, room temp; CD: 25 mM KH2PO4, 25 mM Na2HPO4, 50 mM KCl, 1 mM TCEP, pH 6.8. The settings on record: protein: recombinant; tags: C-terminal GSGC stated for the deltaMax* construct only; not restated for Max*; chain copies: 2; blunt, self-complementary palindrome. Background: A gel shift assay detects complexes by their altered migration in electrophoresis.

Data set [5] deals with T2, c-Myc* (b-HLH-LZ of c-Myc) (UniProt P01106 368-451). The data set can be described thus: CD thermal denaturation; stable complex; FA: 15 nM dsDNA, 50 mM Tris, 50 mM KCl, pH 7.5, 37 C; EMSA: 250 nM DNA, 20 mM Tris-HCl, 75 mM KCl, 2.5 mM TCEP, 25 ug/mL BSA, 5% glycerol, pH 8.0, room temp; CD: 25 mM KH2PO4, 25 mM Na2HPO4, 50 mM KCl, 1 mM TCEP, pH 6.8. The settings on record: protein: recombinant; chain copies: 2; blunt, self-complementary palindrome.

The target in data set [6] is T1, Max* (b-HLH-LZ of WT Max). The data set can be described thus: fluorescence anisotropy; 37 C; apparent 1/KBinding of dimer; 1/KDimer 8.6 ± 1.2 nM; FA: 15 nM dsDNA, 50 mM Tris, 50 mM KCl, pH 7.5, 37 C; EMSA: 250 nM DNA, 20 mM Tris-HCl, 75 mM KCl, 2.5 mM TCEP, 25 ug/mL BSA, 5% glycerol, pH 8.0, room temp; CD: 25 mM KH2PO4, 25 mM Na2HPO4, 50 mM KCl, 1 mM TCEP, pH 6.8. The settings on record: protein: recombinant; tags: C-terminal GSGC stated for the deltaMax* construct only; not restated for Max*; chain copies: 2; label: fluorescein; blunt, self-complementary palindrome.

The target of data set [7] is Max* in heterodimer;c-Myc* in heterodimer (;, UniProt P61244;P01106 22-103;368-451, |). The data set can be described thus: EMSA; room temperature; Max*/Max* complex also seen at 2:1 excess of c-Myc*; FA: 15 nM dsDNA, 50 mM Tris, 50 mM KCl, pH 7.5, 37 C; EMSA: 250 nM DNA, 20 mM Tris-HCl, 75 mM KCl, 2.5 mM TCEP, 25 ug/mL BSA, 5% glycerol, pH 8.0, room temp; CD: 25 mM KH2PO4, 25 mM Na2HPO4, 50 mM KCl, 1 mM TCEP, pH 6.8. The settings on record: protein: recombinant;recombinant; tags: ;; copies: 1;1; label: fluorescein; blunt, self-complementary palindrome.

Data set [8] concerns the target T2, c-Myc* (b-HLH-LZ of c-Myc). The data set can be described thus: fluorescence anisotropy; 37 C; apparent 1/KBinding of dimer; 1/KDimer 0.48 ± 0.5 nM; FA: 15 nM dsDNA, 50 mM Tris, 50 mM KCl, pH 7.5, 37 C; EMSA: 250 nM DNA, 20 mM Tris-HCl, 75 mM KCl, 2.5 mM TCEP, 25 ug/mL BSA, 5% glycerol, pH 8.0, room temp; CD: 25 mM KH2PO4, 25 mM Na2HPO4, 50 mM KCl, 1 mM TCEP, pH 6.8. The settings on record: protein: recombinant; chain copies: 2; label: fluorescein; blunt, self-complementary palindrome.

Data set [9] has as its target T1, Max* (b-HLH-LZ of WT Max). The data set can be described thus: CD thermal denaturation; complex T° 43.7 C; less stable than E-box; FA: 15 nM dsDNA, 50 mM Tris, 50 mM KCl, pH 7.5, 37 C; EMSA: 250 nM DNA, 20 mM Tris-HCl, 75 mM KCl, 2.5 mM TCEP, 25 ug/mL BSA, 5% glycerol, pH 8.0, room temp; CD: 25 mM KH2PO4, 25 mM Na2HPO4, 50 mM KCl, 1 mM TCEP, pH 6.8. The settings on record: protein: recombinant; tags: C-terminal GSGC stated for the deltaMax* construct only; not restated for Max*; chain copies: 2; blunt, self-complementary palindrome.

Data set [10] addresses T2, c-Myc* (b-HLH-LZ of c-Myc). Put plainly: fluorescence anisotropy; 37 C; apparent 1/KBinding of dimer; 1/KDimer 8.5 ± 3 nM; FA: 15 nM dsDNA, 50 mM Tris, 50 mM KCl, pH 7.5, 37 C; EMSA: 250 nM DNA, 20 mM Tris-HCl, 75 mM KCl, 2.5 mM TCEP, 25 ug/mL BSA, 5% glycerol, pH 8.0, room temp; CD: 25 mM KH2PO4, 25 mM Na2HPO4, 50 mM KCl, 1 mM TCEP, pH 6.8. The settings on record: protein: recombinant; chain copies: 2; label: fluorescein; blunt, self-complementary palindrome.

The target of data set [11] is T1, Max* (b-HLH-LZ of WT Max). Put plainly: fluorescence anisotropy; 37 C; apparent 1/KBinding of dimer; 1/KDimer 55 ± 7 nM; FA: 15 nM dsDNA, 50 mM Tris, 50 mM KCl, pH 7.5, 37 C; EMSA: 250 nM DNA, 20 mM Tris-HCl, 75 mM KCl, 2.5 mM TCEP, 25 ug/mL BSA, 5% glycerol, pH 8.0, room temp; CD: 25 mM KH2PO4, 25 mM Na2HPO4, 50 mM KCl, 1 mM TCEP, pH 6.8. The note with it: protein: recombinant; tags: C-terminal GSGC stated for the deltaMax* construct only; not restated for Max*; chain copies: 2; label: fluorescein; blunt, self-complementary palindrome.

T1 sequence (P61244 22-103): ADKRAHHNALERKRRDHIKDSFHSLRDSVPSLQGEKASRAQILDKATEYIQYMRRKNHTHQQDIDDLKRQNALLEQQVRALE
T2 sequence (P01106 368-451): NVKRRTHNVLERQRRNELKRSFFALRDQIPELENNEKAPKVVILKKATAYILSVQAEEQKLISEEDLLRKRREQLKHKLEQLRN
Max* in heterodimer;ΔMax* in heterodimer V99G;R100E;A101S;L102E;E103S (;), P61244+P61244-3, sequence (P61244 whole entry V99G/R100E/A101S/L102E/E103S, looked up, one chain of several): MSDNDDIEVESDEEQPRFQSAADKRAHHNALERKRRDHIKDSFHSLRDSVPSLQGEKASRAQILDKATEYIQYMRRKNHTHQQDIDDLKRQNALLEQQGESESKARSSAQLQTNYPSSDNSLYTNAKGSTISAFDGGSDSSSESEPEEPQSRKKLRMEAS
ΔMax* in heterodimer;c-Myc* in heterodimer V99G;R100E;A101S;L102E;E103S (;), P61244-3+P01106, sequence (P01106 whole entry, looked up, chain 1 of 2): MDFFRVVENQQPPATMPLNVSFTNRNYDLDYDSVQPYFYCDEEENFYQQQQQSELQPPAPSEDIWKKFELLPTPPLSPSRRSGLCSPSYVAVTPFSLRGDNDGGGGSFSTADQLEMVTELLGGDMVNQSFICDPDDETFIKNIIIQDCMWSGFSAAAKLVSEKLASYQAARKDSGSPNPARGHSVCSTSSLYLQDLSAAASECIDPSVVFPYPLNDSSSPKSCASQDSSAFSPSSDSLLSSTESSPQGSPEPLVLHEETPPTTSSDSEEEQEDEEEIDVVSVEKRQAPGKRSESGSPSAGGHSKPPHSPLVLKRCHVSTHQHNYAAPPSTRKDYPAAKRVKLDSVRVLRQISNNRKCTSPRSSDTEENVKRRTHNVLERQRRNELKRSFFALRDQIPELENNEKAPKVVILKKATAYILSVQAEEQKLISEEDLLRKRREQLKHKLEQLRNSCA
ΔMax* in heterodimer;c-Myc* in heterodimer V99G;R100E;A101S;L102E;E103S (;), P61244-3+P01106, sequence (P61244 whole entry, looked up, stated change not applied, chain 2 of 2): as the sequence (P61244 whole entry V99G/R100E/A101S/L102E/E103S, looked up, one chain of several) above, with G99V, E100R, S101A, E102L, S103E counted along it
ΔMax* (b-HLH-LZ of ΔMax splice isoform) V99G;R100E;A101S;L102E;E103S, P61244-3, sequence (P61244 whole entry V99G/R100E/A101S/L102E/E103S, looked up, canonical isoform): as the sequence (P61244 whole entry V99G/R100E/A101S/L102E/E103S, looked up, one chain of several) above
Max* in heterodimer;c-Myc* in heterodimer, sequence (P61244 22-103, chain 1 of 2): as the sequence (P61244 22-103) above
Max* in heterodimer;c-Myc* in heterodimer, sequence (P01106 368-451, chain 2 of 2): as the sequence (P01106 368-451) above

Regarding “GAGTAGCACGTGCTACTC (double strand) [E-box, fluorescein-labeled]”, the Kd in data set [1] (1/KDimer 120 ± 10 nM) is 4 nM; in data set [2], 80 nM; in data set [3] (1/KDimer 17 ± 2 nM), 10 nM.
Turning to “GAGTAGGGATCCCTACTC (double strand) [Non-specific DNA, fluorescein-labeled]”, the Kd turned out to be 40 nM in data set [1] (1/KDimer 460 ± 34 nM) and 11 nM in [3] (1/KDimer 38 ± 5 nM).

B1: E-box, unlabeled (CD) (dsDNA)
DNA 1: GAGTAGCACGTGCTACTC
DNA 2: GAGTAGCACGTGCTACTC
As for B1, the binding result in data set [4] and in [5] was “binds” in each case.

B2: E-box, fluorescein-labeled (dsDNA)
DNA 1: GAGTAGCACGTGCTACTC
DNA 2: GAGTAGCACGTGCTACTC
modifications: internal fluorescein-dT (iFluorT) at position 4
As to B2, the Kd in data set [6] turned out to be 4.8 nM; in [8], 70 nM. Also, the binding result in data set [7] is reported as “binds”.

B3: Non-specific DNA, unlabeled (CD) (dsDNA)
DNA 1: GAGTAGGGATCCCTACTC
DNA 2: GAGTAGGGATCCCTACTC
Take B3: in data set [9], the binding result was “binds”.

B4: Non-specific DNA, fluorescein-labeled (dsDNA)
DNA 1: GAGTAGGGATCCCTACTC
DNA 2: GAGTAGGGATCCCTACTC
modifications: internal fluorescein-dT (iFluorT) at position 4
With B4, the figures for the Kd in data set [10] and in data set [11] were 280 nM and 23 nM, respectively.

The values are drawn from publication PMC5370111, “Biophysical characterization of the b-HLH-LZ of ΔMax, an alternatively spliced isoform of Max found in tumor cells: Towards the validation of a tumor suppressor role for the Max homodimers”.
